Results on 23 molecules are retold here after patent US20200216532A1 (Ablynx, published 2020).

What all share (test): SPR, interference factor immobilized
In general terms: SPR reads the build-up and loss of mass on a sensor chip optically.

Assay [1] concerns the target T1, purified interference factor(s), Donor B.
T1 construct: also called interference in serum from Donor B

The target in assay [2] is T2, purified interference factor(s), Donor A.
T2 construct: also called interference in serum from Donor A

Assay [3] concerns the target T3, purified interference factor(s), Donor C.
T3 construct: also called interference in serum from Donor C

Residue numbers refer to the chain shown, from its start. Names may count otherwise.

B1: SEQ ID NO: 66 (VHH)
VHH: EVQLVESGGGSVQPGGSLRLSCAASRSIGRLDRMGWYRHRPGEPRELVATITGGSSINYGDSVKGRFTISIDNSKNTVYLQMNSLRPEDTAVYYCNFNKYVTSRDTWGQGTLVTVSS
notes: Ex. 8
Consider B1, for which the figures for the “% of binding of reference (=100%)” value in assay [1], in assay [2] and in assay [3] were 29%, 81% and 84%, respectively.

B2: SEQ ID NO: 74 (VHH)
VHH: B1 VHH with S11L
notes: Ex. 8
Turning to B2, the “% of binding of reference (=100%)” value was 41% in assay [1], 4% in assay [2] and 33% in assay [3].

B3: SEQ ID NO: 76 (VHH)
VHH: B1 VHH with S11L
notes: Ex. 8
B3: the “% of binding of reference (=100%)” value came out at 17% in assay [1], 2% in assay [2] and 20% in assay [3].

B4: SEQ ID NO: 75 (VHH)
VHH: B1 VHH with S11L
notes: Ex. 8
B4: the “% of binding of reference (=100%)” value in assay [1] was 11%; in assay [2] it was 1%; in assay [3], 16%.

B5: SEQ ID NO: 79 (VHH)
VHH: B1 VHH with S11L
notes: Ex. 8
Turning to B5, the “% of binding of reference (=100%)” value in assay [1] stood at 17%; in assay [2], 1%; in assay [3], 13%.

B6: SEQ ID NO: 82 (VHH)
VHH: B1 VHH with S11L, P87A
notes: Ex. 8
Turning to B6, the “% of binding of reference (=100%)” value in assay [1] worked out at 80%; in assay [2], 96%; in assay [3], 100%.

B7: SEQ ID NO: 84 (VHH)
VHH: B1 VHH with S11L, S116G
notes: Ex. 8
Take B7: the figures for the “% of binding of reference (=100%)” value in assay [1], in assay [2] and in assay [3] were 50%, 84% and 83%, respectively.

B8: SEQ ID NO: 77 (VHH)
VHH: B1 VHH with S11L
notes: Ex. 8
On to B8, for which the “% of binding of reference (=100%)” value came out at 12% in assay [1], 2% in assay [2] and 13% in assay [3].

B9: SEQ ID NO: 85 (VHH)
VHH: B1 VHH with T114Q, S116G, S117G
notes: Ex. 8
As to B9, the “% of binding of reference (=100%)” value in assay [1] turned out to be 5%; in assay [2], 46%; in assay [3], 42%.

B10: SEQ ID NO: 81 (VHH)
VHH: B1 VHH with S11V
notes: Ex. 8
As for B10, the “% of binding of reference (=100%)” value stood at 50% in assay [1], 94% in assay [2] and 89% in assay [3].

B11: SEQ ID NO: 73 (VHH)
VHH: B1 VHH with S11L, S116G, S117G
notes: Ex. 8; S112G, S113G
As for B11, the results for the “% of binding of reference (=100%)” value in assay [1], in assay [2] and in assay [3] were 8%, 6% and 9%, respectively.

B12: SEQ ID NO: 86 (VHH)
VHH: B1 VHH with T114Q
notes: Ex. 8
With B12, the figures for the “% of binding of reference (=100%)” value in assay [1], in assay [2] and in assay [3] were 6%, 76% and 86%, respectively.

B13: SEQ ID NO: 87 (VHH)
VHH: B1 VHH with S116G, S117G
notes: Ex. 8
Take B13: the “% of binding of reference (=100%)” value in assay [1] came to 5%; in assay [2] it was 51%; in assay [3], 39%.

B14: SEQ ID NO: 89 (VHH)
VHH: B1 VHH with P14A, T114Q, S116G, S117G
notes: Ex. 8
With B14, the results for the “% of binding of reference (=100%)” value in assay [1], in assay [2] and in assay [3] were 5%, 14% and 17%, respectively.

B15: SEQ ID NO: 83 (VHH)
VHH: B1 VHH with S11L, T90A
notes: Ex. 8
Regarding B15, the “% of binding of reference (=100%)” value amounted to 73% in assay [1], 56% in assay [2] and 61% in assay [3].

B16: SEQ ID NO: 88 (VHH)
VHH: B1 VHH with T114Q
notes: Ex. 8; L11S, T110Q
For B16, the “% of binding of reference (=100%)” value in assay [1] came to 5%; in assay [2] it was 1%; in assay [3] it was 11%.

B17: SEQ ID NO: 69 (VHH)
VHH: B1 VHH with S11L, L112Q
notes: Ex. 8
On to B17, for which the “% of binding of reference (=100%)” value in assay [1] is 120%; in assay [2], 80%; in assay [3], 84%.

B18: SEQ ID NO: 78 (VHH)
VHH: B1 VHH with S11L, Q13R
notes: Ex. 8
As to B18, the “% of binding of reference (=100%)” value was 96% in assay [1], 96% in assay [2] and 100% in assay [3].

B19: SEQ ID NO: 72 (VHH)
VHH: B1 VHH with S11L, S116G, S117G
notes: Ex. 8
Take B19: the “% of binding of reference (=100%)” value in assay [1] was 47%; in assay [2] it was 70%; in assay [3], 56%.

B20: SEQ ID NO: 80 (VHH)
VHH: B1 VHH with S11L, T114Q, S116G, S117G
notes: Ex. 8
In the case of B20, the entries for the “% of binding of reference (=100%)” value in assay [1], in assay [2] and in assay [3] were 5%, 65% and 58%, respectively.

B21: SEQ ID NO: 70 (VHH)
VHH: B1 VHH with S11L, T114Q
notes: Ex. 8
B21: the results for the “% of binding of reference (=100%)” value in assay [1], in assay [2] and in assay [3] were 105%, 90% and 98%, respectively.

B22: SEQ ID NO: 67 (VHH)
VHH: B1 VHH with S11L, R86K
notes: Ex. 8
For the molecule B22, the “% of binding of reference (=100%)” value amounted to 117% in assay [1], 102% in assay [2] and 96% in assay [3].

B23: SEQ ID NO: 68 (VHH)
VHH: B1 VHH with S11L, P14A, L112Q
notes: Ex. 8
B23: the “% of binding of reference (=100%)” value in assay [1] is 115%; in assay [2] it was 38%; in assay [3], 49%.
